Assay [1] concerns the target T1, human CD8 on cells (CD8-overexpressing HEK293T cells, SupT1, HPB-ALL, human T cells, transfected HEK293 of … (human, UniProt P01732 22-235)).
T1 construct: whole, on cells; also called cell surface CD8
Kind of assay: flow cytometry on SupT1 cells; SupT1 cells. The protocol: (§1) To obtain the results shown in FIG. 6, SupT1 (ATCC #CRL-1942) and HPB-ALL (DSMZ; ACC-483) were cultured in RPMI medium supplemented with 10% Fetal Bovine Serum (#97068-085; Avantor). To determine EC₅₀ values of cell binding from the anti-CD8α antibody, 2×10⁵ total cells were transferred to a V bottom 96-well culture plate (Corning). Cells were washed twice with Cell Staining buffer (#420201, Biolegend). The anti-CD8α antibody was diluted in four-fold antibody titration series from 60 μg/mL to […] into Cell Staining buffer. Cells were stained with each diluted antibody solution for 30 minutes on ice. Cells were then washed three times with Cell Staining buffer and primary antibody binding was detected by staining with anti-human Fc BV421 conjugate antibody (#410704, Biolegend) at 1:200 dilution for 30 minutes on ice. eFluor 780 Fixable Viability dye (eBioscience) at a 1:4000 dilution were also included in the detection antibody solutions. […] Flow cytometry data was analyzed by Flowjo 10 (Becton, Dickinson & Company) to measure the geometric median fluorescence intensity (gMFI) of the on-cell binding from each antibody. The gMFI values were normalized with the gMFI measured in the sample stained with only the secondary detection antibody and plotted against the concentration of the added antibodies. […]

In assay [2] the target is T2, human CD8αα homodimer, recombinant protein (Acro Biosystems) (human, UniProt P01732 22-182).
T2 construct: also called CD8αα antigen; biotinylated CD8α recombinant protein (CDA-H82E3)
T2 sequence (P01732 22-182 limits assumed): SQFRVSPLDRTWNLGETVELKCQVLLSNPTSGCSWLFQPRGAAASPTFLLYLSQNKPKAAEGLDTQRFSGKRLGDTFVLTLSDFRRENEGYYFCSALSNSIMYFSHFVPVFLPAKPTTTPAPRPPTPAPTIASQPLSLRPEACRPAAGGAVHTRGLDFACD
The experiment in a line: BLI, whole antibody, steady state dissociation constant (column head x10^-9M). Here is the method: (§2) To assess affinity of whole antibodies, steady state analysis was used as the bivalent nature of both whole antibody and CD8α complicates kinetic analysis. 50 nM CD8α-His (that is, CD8α with a C-terminal oligohistidine tag; Acro) was immobilized on Ni-NTA sensor probes. Binding was analyzed with a three-fold antibody dilutions series: 60 nM, 20 nM, 6.67 nM, 2.22 nM, 0.74 nM, and 0.25 nM. The antigen-loaded sensors were incubated in the diluted solutions to capture the whole IgG antibody for 300 s to record the association phase. Sensors were incubated in the kinetic buffer for 900 s to record the dissociation phase. The spin speed was 1000 rpm for all steps except the antigen loading step which was 400 rpm to control density of the antigen. The temperature of the performed assays was at 30° C. during the association and dissociation phases. The sensor data were baseline subtracted and further analyzed in GatorOne software (version 2.10) to determine the equilibrium dissociation constants (KD) of the antibodies by fitting the signals of the steady states to the 1:1 binding model.

The target in a further assay is T3, insulin (Sigma).
T3 construct: Antigen of the polyreactivity ELISA
T3 sequence (P01308 25-54, chain 1 of 2): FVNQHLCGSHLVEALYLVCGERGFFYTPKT
T3 sequence (P01308 90-110, chain 2 of 2): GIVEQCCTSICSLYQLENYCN
Kind of assay: polyreactive ELISA, insulin coated, 100 nM antibody. Here is the method:
Insulin ([…]; Sigma) and dsDNA ([…]; Sigma) were coated onto 96-well high-binding ELISA microplates (Corning) at 50 μL per well overnight at 4° C. Plates were blocked with PBS with 0.5% BSA (blocking buffer) at room temperature (RT) for 1 h, followed by three washes with PBST (PBS with 0.1% Tween-20). 50 μL of 100 nM antibody in blocking buffer was added to each well and incubated at RT for 1 h, followed by six washes with 100 μL of PBS. 50 μL of diluted anti-human IgG-horseradish peroxidase (HRP) conjugate (Jackson ImmunoResearch) was added to the wells and incubated for 1 h followed by another six washes. Finally, 50 μL of 3, 3′, 5, 5′-Tetramethylbenzidine (TMB) substrate (Fisher Scientific) was added to each well to develop the detection signal. The reactions were stopped by adding 50 μL of 2 M sulfuric acid to each well. The absorbance was measured at 450 nm using a multimode microplate reader. Ustekinumab as the control antibody with low polyreactivity and bococizumab as a highly polyreactive antibody control were also included in the polyreactive ELISA assessment.
The first assessment tested for low non-specific binding to dsDNA and insulin by ELISA. […] Thus, by this standard, none of the tested antibodies were polyreactive.

Assay [3] has as its target T2, human CD8αα homodimer, recombinant …. Kind of assay: BLI steady state analysis, whole antibody, sample stressed at pH 8.5, 40 °C, 3 days. Here is the method: as §2
For assay [4] the target is unchanged. The experiment in a line: BLI steady state analysis of the data of FIG. 2D. The protocol: The global fitting was performed with a 1:1 fitting model using GatorOne software as described below.
as §2

The target of assay [5] is T1, human CD8 on cells (CD8-overexpressing …). Kind of assay: flow cytometry on HPB-ALL cells; HPB-ALL cells. Here is the method: as §1
In assay [6] the target is T2, human CD8αα homodimer, recombinant …. The experiment in a line: BLI, whole antibody.

T1 sequence (P01732 22-235): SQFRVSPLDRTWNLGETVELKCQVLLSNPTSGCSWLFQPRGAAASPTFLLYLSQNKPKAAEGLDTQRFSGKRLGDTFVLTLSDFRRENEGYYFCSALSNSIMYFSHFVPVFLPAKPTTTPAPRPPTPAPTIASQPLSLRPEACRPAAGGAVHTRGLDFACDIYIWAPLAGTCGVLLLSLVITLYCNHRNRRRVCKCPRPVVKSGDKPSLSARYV

B1: CBD1033 whole antibody, human IgG1 with Fc-silencing mutations L234A, L235A and P329A (CBD1033-hIgG1-LALAPA) (antibody, V domains shown)
VH: QVQLVQSGAEVKKPGASVKVSCKASRYTFTDYNLHWVRQAPGQGLEWMGFIYPYNGGTGYAQKFQGRVTMTVDTSTSTAYMELSSLRSEDTAVYYCARDHRYNEGVSFDYWGQGTTVTVSS
VL: DIQLTQSPSSLSASVGDRATITCRASESVDGFGNSFMNWYQQKPGKAPKLLIYLASNLESGVPSRFSGSGSGTDFTLTISSVQPEDFATYYCQQNNEDPYTFGQGTKLEIKR
notes: On tLNPs the antibody was SATA-modified or AJICAP-thiolated (CBD1033.29) and conjugated to the LNP; also called CBD1033.3; CBD1033 IgG1
Regarding B1, the EC50 in assay [1] is 0.312 µg/mL; in assay [5] it was 0.274 µg/mL. Further, the results for the Kd in assay [2], in assay [3] and in assay [4] were 1.43 nM, 1.71 nM and 2.27 nM, respectively. In addition, the “polyreactivity ELISA score” value with insulin (Sigma) stood at 1. In addition, in assay [6], the koff stood at 0.00307 s⁻¹. Moreover, the kon in assay [6] is 1.85e+06 M⁻¹ s⁻¹.

Values taken from patent US20250195685A1 (CAPSTAN THERAPEUTICS, published 2025).
